Source: patent US9175053B2, “Chemical preparation of ubiquitin thioesters and modifications thereof” (BEN-GURION UNIVERSITY OF THE NEGEV RESEARCH AND DEVELOPMENT …, priority 2010, dated 2015)
Entries after “also recorded” stand apart in the source; their conditions may differ.

Molecular target: T1, recombinant human ubiquitin C-terminal hydrolase L3 (UCH-L3) (Homo sapiens, UniProt P15374)
T1 construct: purchased Aldrich
T1 sequence (P15374 1-230): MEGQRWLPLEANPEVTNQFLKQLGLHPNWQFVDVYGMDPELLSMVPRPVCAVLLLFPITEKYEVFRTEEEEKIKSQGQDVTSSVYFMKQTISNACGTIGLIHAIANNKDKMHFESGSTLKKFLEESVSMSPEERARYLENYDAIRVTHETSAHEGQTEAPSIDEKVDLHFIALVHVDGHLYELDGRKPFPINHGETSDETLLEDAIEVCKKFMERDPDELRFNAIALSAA
Assay: Enzymatic cleavage of isopeptide by ubiquitin C-terminal hydrolase UCH-L3
Type: biochemical
Details: ~100 μM peptide, 12 hours at 37° C., Tris/NaCl/DTT buffer
Procedure: Purified peptide 8 was dissolved in 482 μL of assay buffer (50 mM Tris, 150 mM NaCl, 1 mM DTT, pH 7.5) to a final concentration of ˜100 μM and reacted with recombinant human ubiquitin C-terminal hydrolase L3 (UCH-L3, Aldrich). 10 μg of UCH-L3 in 15.5 μL of assay buffer containing 50 mM Tris, 150 mM NaCl, 12 mM DTT, pH 8.0 was incubated for 20 minutes at 25° C. To the reduced UCH-L3 was then added 8 in 187 μL. […] The reaction was analyzed using C-4 analytical RP-HPLC employing a gradient of 10-60% B for 30 minutes, in order to identify the hydrolysis.

## 8: α-synuclein(1-17) model peptide ubiquitylated with synthetic Ub-SR via mercaptolysine, then desulfurized (Scheme 6) [Peptide 8]
  hydrolysis of the ubiquitylated peptide by UCH-L3 (RP-HPLC): UCH-L3 substrate; also recorded: complete hydrolysis
